This experiment deals with Presenilin-1 (PS1) (human, UniProt P49768 1-467). As to the kind of experiment: co-immunoprecipitation with anti-PS1/NTF R222 from transfected A431D cell extracts, Western blot with C36. How it is done:
Immunoprecipitations (IPs), immunoblotting, immunofluorescence and confocal microscopy. For WB analysis of cell extracts, cells were washed with PBS and then solubilized in RIPA buffer. For IPs cells were solubilized in Hepes buffer (25 mM Hepes [pH 7.4], 150 mM NaCl, 1× Complete protease inhibitor cocktail, Roche) containing 1% digitonin (IPs with I-R222 and PI-R222 antibodies) or 1% Triton X-100 (IPs with β-catenin and desmoglein antibodies). Following centrifugation at 17,000×g for 10 min, supernatants (1 mg protein) were pre-cleared with protein A- or protein G-agarose (Pierce) for 2 hours. Supernatants were then incubated with antibodies overnight at 4° C. and treated for 2 hours with protein A-agarose (polyclonal antibodies) or with protein G-agarose (monoclonal antibodies). IPs were washed with Hepes buffer containing either 1% digitonin or 1% Triton X-100 and analyzed by SDS-PAGE. Immunofluorescence and confocal microscopy was performed as described by Georgakopoulos et al., (1999). Briefly, cells were plated on 22×22 mm collagen-coated glass coverslips, fixed in cold methanol for 10 min at −20° C. […]
(In general: In western blotting, separated proteins are transferred to a membrane and probed.)

B1: E-cadherin mutant GGG759-761AAA (receptor)
chain: DWVIPPISCPENEKGPFPKNLVQIKSNKDKEGKVFYSITGQGADTPPVGVFIIERETGWLKVTEPLDRERIATYTLFSHAVSSNGNAVEDPMEILITVTDQNDNKPEFTQEVFKGSVMEGALPGTSVMEVTATDADDDVNTYNAAIAYTILSQDPELPDKNMFTINRNTGVISVVTTGLDRESFPTYTLVVQAADLQGEGLSTTATAVITVTDTNDNPPIFNPTTYKGQVPENEANVVITTLKVTDADAPNTPAWEAVYTILNDDGGQFVVTTNPVNNDGILKTAKGLDFEAKQQYILHVAVTNVVPFEVSLTTSTATVTVDVLDVNEAPIFVPPEKRVEVSEDFGVGQEITSYTAQEPDTFMEQKITYRIWRDTANWLEINPDTGAISTRAELDREDFEHVKNSTYTALIIATDNGSPVATGTGTLLLILSDVNDNAPIPEPRTIFFCERNPKPQVINIIDADLPPNTSPFTAELTHGASANWTIQYNDPTQESIILKPKMALEVGDYKINLKLMDNQNKDQVTTLEVSVCDCEGAAGVCRKAQPVEAGLQIPAILGILGGILALLILILLLLLFLRRRAVVKEPLLPPEDDTRDNVYYYDEEAAAEEDQDFDLSQLHRGLDARPEVTRNDVAPTLMSVPRYLPRPANPDEIGNFIDENLKAADTDPTAPPYDSLLVFDYEGSGSEAASLSSLNSSESDKDQDYDYLNEWGNRFKKLADMYGGGEDD
notes: whole, on cells; Numbering on the unprocessed human E-cadherin precursor; Assayed in cell extracts by co-immunoprecipitation; also called mutant E-cadherin
Take B1: the binding result is reported as “no binding”.
